# Measurements taken from patent US6835382B2, “Ii peptide therapeutics to enhance antigen presentation” (University of Massachusetts, priority 1996, dated 2004).
# Non-standard residues stand in square brackets, D forms with d. Hyp = O=C(O)[C@@H]1C[C@@H](O)CN1
# B1: AE143 (peptide)
# peptide: Ac-YRMKL[Hyp]KSAK-NH2
# SMILES: CSCC[C@H](NC(=O)[C@H](CCCNC(=N)N)NC(=O)[C@H](Cc1ccc(O)cc1)NC(C)=O)C(=O)N[C@@H](CCCCN)C(=O)N[C@@H](CC(C)C)C(=O)N1C[C@H](O)C[C@H]1C(=O)N[C@@H](CCCCN)C(=O)N[C@@H](CO)C(=O)N[C@@H](C)C(=O)N[C@@H](CCCCN)C(N)=O
# B2: AE381 (peptide)
# peptide: LRMKLPK
# modifications: head-to-tail cyclization: the amino terminal amino group is coupled through an amide linkage to the carboxyl terminal group
# Tests used:
# [1] = target: soluble HLA-DR1 (HLA-DR alpha truncated after Asn192 with a C-terminal nine amino acid HA epitope tail; HLA-DR1 beta truncated after Lys198), made in Baculovirus-infected insect cells (human); test: release ELISA as Table 36; unlabeled hMBP(90-102) 250 uM alone against prebound biotin-hMBP(90-102) on tethered HLA-DR1
# [2] = target: soluble HLA-DR1 (HLA-DR alpha truncated after Asn192 with a C-terminal nine amino acid HA epitope tail; HLA-DR1 beta truncated after Lys198), made in Baculovirus-infected insect cells (human); test: exchange ELISA: tethered HLA-DR1 preloaded with unlabeled hMBP(90-102) 50 uM, washed; biotin-hMBP(90-102) 50 uM alone, no AE peptide, 1 h 37 C
# [3] = target: soluble HLA-DR1 (HLA-DR alpha truncated after Asn192 with a C-terminal nine amino acid HA epitope tail; HLA-DR1 beta truncated after Lys198), made in Baculovirus-infected insect cells (human); test: release ELISA as Table 36 (biotin-hMBP(90-102) left on tethered HLA-DR1); AE peptide 64 uM, with unlabeled hMBP(90-102) 250 uM
# [4] = target: soluble HLA-DR1 (HLA-DR alpha truncated after Asn192 with a C-terminal nine amino acid HA epitope tail; HLA-DR1 beta truncated after Lys198), made in Baculovirus-infected insect cells (human); test: release ELISA: soluble HLA-DR1 tethered by 12CA5 and preloaded with biotin-hMBP(90-102); AE peptide 64 uM, 1 h 37 C, no unlabeled peptide; biotin still bound read by avidin-HRP (1.0 = PBS control, 0.0 = no DR1; low value = released)
# [5] = target: soluble HLA-DR1 (HLA-DR alpha truncated after Asn192 with a C-terminal nine amino acid HA epitope tail; HLA-DR1 beta truncated after Lys198), made in Baculovirus-infected insect cells (human); test: release ELISA as Table 36 (biotin-hMBP(90-102) left on tethered HLA-DR1); AE peptide 1 uM, with unlabeled hMBP(90-102) 250 uM
# [6] = target: soluble HLA-DR1 (HLA-DR alpha truncated after Asn192 with a C-terminal nine amino acid HA epitope tail; HLA-DR1 beta truncated after Lys198), made in Baculovirus-infected insect cells (human); test: release ELISA as Table 36 (biotin-hMBP(90-102) left on tethered HLA-DR1); AE peptide 64 uM, without unlabeled hMBP(90-102)
# [7] = target: soluble HLA-DR1 (HLA-DR alpha truncated after Asn192 with a C-terminal nine amino acid HA epitope tail; HLA-DR1 beta truncated after Lys198), made in Baculovirus-infected insect cells (human); test: release ELISA as Table 36 (biotin-hMBP(90-102) left on tethered HLA-DR1); AE peptide 1 uM, without unlabeled hMBP(90-102)
# [8] = target: soluble HLA-DR1 (HLA-DR alpha truncated after Asn192 with a C-terminal nine amino acid HA epitope tail; HLA-DR1 beta truncated after Lys198), made in Baculovirus-infected insect cells (human); test: release ELISA as Table 36; AE101 1 uM, without unlabeled hMBP(90-102)
# [9] = target: soluble HLA-DR1 (HLA-DR alpha truncated after Asn192 with a C-terminal nine amino acid HA epitope tail; HLA-DR1 beta truncated after Lys198), made in Baculovirus-infected insect cells (human); test: loading ELISA: empty tethered HLA-DR1 with biotin-hMBP(90-102) 50 uM and AE peptide 64 uM, 1 h 37 C; biotin bound read by avidin-HRP
# [10] = target: soluble HLA-DR1 (HLA-DR alpha truncated after Asn192 with a C-terminal nine amino acid HA epitope tail; HLA-DR1 beta truncated after Lys198), made in Baculovirus-infected insect cells (human); test: exchange ELISA: tethered HLA-DR1 preloaded with unlabeled hMBP(90-102) 50 uM, washed; AE peptide plus biotin-hMBP(90-102) 50 uM, 1 h 37 C; biotin bound as fraction of positive control (overnight loading)
molecule,measurement,setting,value
unlabeled human myelin basic protein peptide hMBP(90-102) (from UniProt P02686 90-102),Relative Release (fraction of positive control o.d.),[1],0.81
N-terminally biotin-labeled human myelin basic protein peptide hMBP(90-102) (from UniProt P02686 90-102),Relative Binding (fraction of positive control o.d.),[2],0.08
YRMKLPKSAK [AE108],Relative Release (fraction of positive control o.d.),[3],0.14
same,Relative Release (fraction of positive control o.d.),[4],1.14
same,Relative Release (fraction of positive control o.d.),[5],0
same,Relative Release (fraction of positive control o.d.),[6],0.31
same,Relative Release (fraction of positive control o.d.),[7],0.52
YRMKLPKSAKPVSQMR [AE101],Relative Release (fraction of positive control o.d.),[8],0.02
same,Relative Enhancement (of biotin-hMBP(90-102) binding to empty HLA-DR1) (relative to no AE peptide = 1),[9],2.66
same,Relative Release (fraction of positive control o.d.),[4],-0.33
same,Relative Binding (of biotin-hMBP(90-102) to HLA-DR1) (fraction of positive control o.d.),[10],0.31
Ac-LRMKYPK-NH2 [AE235],Relative Release (fraction of positive control o.d.),[3],0.6
same,Relative Enhancement (of biotin-hMBP(90-102) binding to empty HLA-DR1) (relative to no AE peptide = 1),[9],0.61
same,Relative Release (fraction of positive control o.d.),[4],0.79
same,Relative Binding (of biotin-hMBP(90-102) to HLA-DR1) (fraction of positive control o.d.),[10],0.15
same,Relative Release (fraction of positive control o.d.),[5],0.48
same,Relative Release (fraction of positive control o.d.),[6],0.81
same,Relative Release (fraction of positive control o.d.),[7],1.05
Ac-LRLKLPK-NH2 [AE206],Relative Release (fraction of positive control o.d.),[3],-0.29
same,Relative Enhancement (of biotin-hMBP(90-102) binding to empty HLA-DR1) (relative to no AE peptide = 1),[9],2.57
same,Relative Binding (of biotin-hMBP(90-102) to HLA-DR1) (fraction of positive control o.d.),[10],-0.13
same,Relative Release (fraction of positive control o.d.),[5],0.03
same,Relative Release (fraction of positive control o.d.),[6],0.08
same,Relative Release (fraction of positive control o.d.),[7],0.58
B1,Relative Release (fraction of positive control o.d.),[3],0.21
same,Relative Release (fraction of positive control o.d.),[5],0.35
same,Relative Release (fraction of positive control o.d.),[6],0.58
same,Relative Release (fraction of positive control o.d.),[7],0.51
B2,Relative Release (fraction of positive control o.d.),[3],-0.19
same,Relative Enhancement (of biotin-hMBP(90-102) binding to empty HLA-DR1) (relative to no AE peptide = 1),[9],1.84
same,Relative Binding (of biotin-hMBP(90-102) to HLA-DR1) (fraction of positive control o.d.),[10],-0.12
same,Relative Release (fraction of positive control o.d.),[5],0.09
same,Relative Release (fraction of positive control o.d.),[6],0.5
same,Relative Release (fraction of positive control o.d.),[7],0.64
